Data reported in US20140274782A1, “AFFINITY REAGENTS AND METHODS FOR DETECTION, PURIFICATION, AND PROTEOMIC ANALYSIS OF METHYLATED PROTEINS” (The Board of Trustees of the Leland Stanford Junior …, priority 2013, published 2014).

T1: G9a and GLP (Homo sapiens, UniProt Q96KQ7+Q9H9B1)
T1 sequence (Q96KQ7 2-1210 limits assumed): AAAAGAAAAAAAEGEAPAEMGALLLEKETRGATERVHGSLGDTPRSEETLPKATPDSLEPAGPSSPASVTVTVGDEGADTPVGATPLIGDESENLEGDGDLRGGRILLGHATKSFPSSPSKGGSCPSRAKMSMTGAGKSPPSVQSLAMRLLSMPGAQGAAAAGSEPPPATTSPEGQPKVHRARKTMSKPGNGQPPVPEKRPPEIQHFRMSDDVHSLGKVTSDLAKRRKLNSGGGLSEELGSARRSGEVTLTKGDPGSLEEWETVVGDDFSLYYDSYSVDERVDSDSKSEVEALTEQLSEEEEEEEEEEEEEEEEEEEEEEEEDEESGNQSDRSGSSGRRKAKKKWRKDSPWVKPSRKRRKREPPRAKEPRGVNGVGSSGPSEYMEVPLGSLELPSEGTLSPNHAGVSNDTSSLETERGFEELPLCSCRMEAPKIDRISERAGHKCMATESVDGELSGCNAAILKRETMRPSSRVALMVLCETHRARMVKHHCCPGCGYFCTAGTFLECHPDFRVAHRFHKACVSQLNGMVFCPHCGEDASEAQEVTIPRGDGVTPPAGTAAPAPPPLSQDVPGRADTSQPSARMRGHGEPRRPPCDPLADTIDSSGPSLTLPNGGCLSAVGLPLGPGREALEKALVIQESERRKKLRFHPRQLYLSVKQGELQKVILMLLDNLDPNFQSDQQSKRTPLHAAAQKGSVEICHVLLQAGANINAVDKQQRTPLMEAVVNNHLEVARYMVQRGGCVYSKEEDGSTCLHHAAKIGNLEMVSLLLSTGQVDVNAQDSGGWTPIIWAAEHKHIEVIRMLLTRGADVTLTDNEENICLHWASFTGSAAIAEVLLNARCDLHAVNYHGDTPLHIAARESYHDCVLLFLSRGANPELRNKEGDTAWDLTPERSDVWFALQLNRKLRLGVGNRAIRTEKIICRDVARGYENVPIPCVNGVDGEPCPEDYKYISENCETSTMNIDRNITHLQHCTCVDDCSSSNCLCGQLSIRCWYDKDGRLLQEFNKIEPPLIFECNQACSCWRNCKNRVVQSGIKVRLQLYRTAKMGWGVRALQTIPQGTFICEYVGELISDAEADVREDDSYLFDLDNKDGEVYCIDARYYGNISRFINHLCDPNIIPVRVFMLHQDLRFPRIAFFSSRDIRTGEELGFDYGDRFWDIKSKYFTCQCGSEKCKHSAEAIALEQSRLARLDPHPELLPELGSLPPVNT
T1 sequence (Q9H9B1 2-1298 limits assumed): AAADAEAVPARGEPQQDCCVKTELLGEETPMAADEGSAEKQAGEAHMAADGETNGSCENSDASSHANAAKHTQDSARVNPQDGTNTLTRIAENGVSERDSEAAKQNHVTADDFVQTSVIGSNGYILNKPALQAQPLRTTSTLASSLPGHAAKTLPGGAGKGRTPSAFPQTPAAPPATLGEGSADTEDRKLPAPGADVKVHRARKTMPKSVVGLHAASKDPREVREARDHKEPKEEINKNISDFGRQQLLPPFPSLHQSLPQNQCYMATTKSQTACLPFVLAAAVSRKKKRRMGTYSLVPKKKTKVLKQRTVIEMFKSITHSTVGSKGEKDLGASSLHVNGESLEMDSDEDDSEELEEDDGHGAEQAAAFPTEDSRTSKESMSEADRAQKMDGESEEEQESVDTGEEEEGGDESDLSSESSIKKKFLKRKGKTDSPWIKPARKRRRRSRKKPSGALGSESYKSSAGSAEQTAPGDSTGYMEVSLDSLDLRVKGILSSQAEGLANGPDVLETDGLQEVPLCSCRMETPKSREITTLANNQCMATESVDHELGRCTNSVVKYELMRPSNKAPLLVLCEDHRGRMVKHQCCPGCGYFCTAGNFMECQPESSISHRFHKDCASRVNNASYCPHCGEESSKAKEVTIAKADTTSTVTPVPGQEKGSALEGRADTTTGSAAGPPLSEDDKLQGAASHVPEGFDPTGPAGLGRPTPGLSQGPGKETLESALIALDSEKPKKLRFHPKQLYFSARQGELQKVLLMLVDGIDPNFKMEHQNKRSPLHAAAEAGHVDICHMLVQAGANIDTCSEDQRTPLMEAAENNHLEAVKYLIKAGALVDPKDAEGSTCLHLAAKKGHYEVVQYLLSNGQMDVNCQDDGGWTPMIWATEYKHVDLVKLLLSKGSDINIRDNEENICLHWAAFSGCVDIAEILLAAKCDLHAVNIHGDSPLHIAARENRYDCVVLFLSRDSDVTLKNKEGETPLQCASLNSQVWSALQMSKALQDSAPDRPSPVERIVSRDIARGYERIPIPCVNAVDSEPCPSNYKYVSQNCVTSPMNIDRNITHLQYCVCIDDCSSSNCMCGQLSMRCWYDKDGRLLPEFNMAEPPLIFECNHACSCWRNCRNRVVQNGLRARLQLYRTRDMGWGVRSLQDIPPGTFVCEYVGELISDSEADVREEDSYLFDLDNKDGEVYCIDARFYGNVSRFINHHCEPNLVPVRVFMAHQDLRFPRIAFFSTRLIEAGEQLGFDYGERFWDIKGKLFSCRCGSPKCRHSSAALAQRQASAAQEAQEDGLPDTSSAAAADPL

B1: CACYBP (protein, UniProt Q9HB71 2-228, looked up)
Calcyclin-binding protein: ASEELQKDLEEVKVLLEKATRKRVRDALTAEKSKIETEIKNKMQQKSQKKAELLDNEKPAAVVAPITTGYTVKISNYGWDQSDKFVKIYITLTGVHQVPTENVQVHFTERSFDLLVKNLNGKSYSMIVNNLLKPISVEGSSKKVKTDTVLILCRKKVENTRWDYLTQVEKECKEKEKPSYDTETDPSEGLMNVLKKIYEDGDDDMKRTINKAWVESREKQAKGDTEF
B2: PRDX6 (protein, UniProt P30041 2-224, looked up)
Peroxiredoxin-6: PGGLLLGDVAPNFEANTTVGRIRFHDFLGDSWGILFSHPRDFTPVCTTELGRAAKLAPEFAKRNVKLIALSIDSVEDHLAWSKDINAYNCEEPTEKLPFPIIDDRNRELAILLGMLDPAEKDEKGMPVTARVVFVFGPDKKLKLSILYPATTGRNFDEILRVVISLQLTAEKRVATPVDWKDGDSVMVLPTIPEEEAKKLFPKGVFTKELPSGKKYLRYTPQP
B3: ZC3HAV1 (protein, UniProt Q7Z2W4 2-902, looked up)
Zinc finger CCCH-type …: ADPEVCCFITKILCAHGGRMALDALLQEIALSEPQLCEVLQVAGPDRFVVLETGGEAGITRSVVATTRARVCRRKYCQRPCDNLHLCKLNLLGRCNYSQSERNLCKYSHEVLSEENFKVLKNHELSGLNKEELAVLLLQSDPFFMPEICKSYKGEGRQQICNQQPPCSRLHICDHFTRGNCRFPNCLRSHNLMDRKVLAIMREHGLNPDVVQNIQDICNSKHMQKNPPGPRAPSSHRRNMAYRARSKSRDRFFQGSQEFLASASASAERSCTPSPDQISHRASLEDAPVDDLTRKFTYLGSQDRARPPSGSSKATDLGGTSQAGTSQRFLENGSQEDLLHGNPGSTYLASNSTSAPNWKSLTSWTNDQGARRKTVFSPTLPAARSSLGSLQTPEAVTTRKGTGLLSSDYRIINGKSGTQDIQPGPLFNNNADGVATDITSTRSLNYKSTSSGHREISSPRIQDAGPASRDVQATGRIADDADPRVALVNDSLSDVTSTTSSRVDDHDSEEICLDHLCKGCPLNGSCSKVHFHLPYRWQMLIGKTWTDFEHMETIEKGYCNPGIHLCSVGSYTINFRVMSCDSFPIRRLSTPSSVTKPANSVFTTKWIWYWKNESGTWIQYGEEKDKRKNSNVDSSYLESLYQSCPRGVVPFQAGSRNYELSFQGMIQTNIASKTQKDVIRRPTFVPQWYVQQMKRGPDHQPAKTSSVSLTATFRPQEDFCFLSSKKYKLSEIHHLHPEYVRVSEHFKASMKNFKIEKIKKIENSELLDKFTWKKSQMKEEGKLLFYATSRAYVESICSNNFDSFLHETHENKYGKGIYFAKDAIYSHKNCPYDAKNVVMFVAQVLVGKFTEGNITYTSPPPQFDSCVDTRSNPSVFVIFQKDQVYPQYVIEYTEDKACVIS
B4: PDCD2L (protein, UniProt Q9BRP1 2-358, looked up)
Programmed cell death protein …: AAVLKPVLLGLRDAPVHGSPTGPGAWTASKLGGIPDALPTVAAPRPVCQRCGQPLALVVQVYCPLEGSPFHRLLHVFACACPGCSTGGARSWKVFRSQCLQVPEREAQDAQKQGNSLAAEDWCEGADDWGSDTEEGPSPQFTLDFGNDASSAKDVDWTARLQDLRLQDAVLGAAHPVPPGLPLFLPYYICVADEDDYRDFVNLDHAHSLLRDYQQREGIAMDQLLSQSLPNDGDEKYEKTIIKSGDQTFYKFMKRIAACQEQILRYSWSGEPLFLTCPTSEVTELPACSQCGGQRIFEFQLMPALVSMLKSANLGLSVEFGTILVYTCEKSCWPPNHQTPMEEFCIIQEDPDELLFK
B5: HNRNPH2 (protein, UniProt P55795 1-449, looked up)
Heterogeneous nuclear …: MMLSTEGREGFVVKVRGLPWSCSADEVMRFFSDCKIQNGTSGIRFIYTREGRPSGEAFVELESEEEVKLALKKDRETMGHRYVEVFKSNSVEMDWVLKHTGPNSPDTANDGFVRLRGLPFGCSKEEIVQFFSGLEIVPNGMTLPVDFQGRSTGEAFVQFASQEIAEKALKKHKERIGHRYIEIFKSSRAEVRTHYDPPRKLMAMQRPGPYDRPGAGRGYNSIGRGAGFERMRRGAYGGGYGGYDDYGGYNDGYGFGSDRFGRDLNYCFSGMSDHRYGDGGSSFQSTTGHCVHMRGLPYRATENDIYNFFSPLNPMRVHIEIGPDGRVTGEADVEFATHEDAVAAMAKDKANMQHRYVELFLNSTAGTSGGAYDHSYVELFLNSTAGASGGAYGSQMMGGMGLSNQSSYGGPASQQLSGGYGGGYGGQSSMSGYDQVLQENSSDYQSNLA

What was measured:
3×MBT domain of L3MBTL1 = assay: Triple SILAC pull-down, 3xMBT/3xMBTD355N ratio (cytoplasmic, nuclear and chromatin fractions of 293T cells); assay type: binding, human; conditions: SILAC ratio, pull-down 3xMBT vs 3xMBTD355N; for 3xMBT/D355N UNC Heavy: experiment with UNC0638 in heavy SILAC media; for 3xMBT/D355N UNC Light: experiment with UNC0638 in light SILAC media;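 as to all read-outs here: proteins quantified with MaxQuant, requiring at least two unique peptides and quantification in both label directions, normalized to the mean of proteins from a digested loading control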
G9a and GLP = biological target: T1, G9a and GLP; assay: Triple SILAC pull-down after UNC0638 treatment of 293T cells, DMSO/UNC0638 ratio of protein captured by 3×MBT; assay type: cell-based; parameters: cells were treated for 24 hours with UNC0638 at 2.5 μM or DMSO vehicle control; endogenous in cells; host or cells: HEK 293T; conditions: for Relative to UNC0638 UNC Heavy / Relative to UNC0638 UNC Light: SILAC ratio DMSO/UNC0638 of protein pulled down with 3xMBT; for Relative to UNC0638 UNC Heavy: UNC0638 in heavy SILAC media; for Relative to UNC0638 UNC Light: UNC0638 in light SILAC media; for Relative to UNC0638 Average: average of UNC Light and UNC Heavy experiments;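 as to all read-outs here: mass spectrometry (Q-Exactive) SILAC quantitation, DMSO/UNC0638 ratio computed after subtracting 3×MBTD355N mutant pull-down background, only proteins with at least twofold 3×MBT over mutant signal considered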

Molecule	3xMBT/D355N UNC Heavy (3×MBT domain of L3MBTL1)	3xMBT/D355N UNC Light (3×MBT domain of L3MBTL1)	Relative to UNC0638 UNC Heavy (G9a and GLP)	Relative to UNC0638 UNC Light (G9a and GLP)	Relative to UNC0638 Average (G9a and GLP)
B1	1.46 log base 2	1.48 log base 2	0.29 log base 2	0.20 log base 2	0.25 log base 2
B2	2.01 log base 2	2.00 log base 2	0.27 log base 2	0.23 log base 2	0.25 log base 2
B3	2.03 log base 2	1.92 log base 2	−0.16 log base 2	0.65 log base 2	0.25 log base 2
B4	2.68 log base 2	3.19 log base 2	0.22 log base 2	0.28 log base 2	0.25 log base 2
B5	1.02 log base 2	2.68 log base 2	0.18 log base 2	0.32 log base 2	0.25 log base 2
